For the experiment, the target named is T1, mNG::aPKC (C. elegans (endogenous in zygotes), UniProt Q19266 1-597).
T1 sequence (looked up): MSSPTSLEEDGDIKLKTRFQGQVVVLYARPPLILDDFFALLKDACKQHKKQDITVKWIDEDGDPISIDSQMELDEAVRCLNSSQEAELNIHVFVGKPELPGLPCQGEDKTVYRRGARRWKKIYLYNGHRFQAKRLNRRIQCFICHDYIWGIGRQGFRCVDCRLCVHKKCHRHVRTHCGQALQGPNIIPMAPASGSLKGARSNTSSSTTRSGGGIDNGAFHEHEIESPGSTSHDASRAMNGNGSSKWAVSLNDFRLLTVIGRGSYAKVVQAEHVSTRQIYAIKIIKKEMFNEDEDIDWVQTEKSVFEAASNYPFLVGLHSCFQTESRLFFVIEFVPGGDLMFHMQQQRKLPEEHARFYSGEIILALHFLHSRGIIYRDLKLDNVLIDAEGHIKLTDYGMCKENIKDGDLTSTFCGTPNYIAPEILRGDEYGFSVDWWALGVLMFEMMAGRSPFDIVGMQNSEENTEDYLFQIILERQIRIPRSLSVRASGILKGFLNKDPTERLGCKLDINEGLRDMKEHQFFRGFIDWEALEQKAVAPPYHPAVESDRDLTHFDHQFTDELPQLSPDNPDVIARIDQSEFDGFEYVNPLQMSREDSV
The experiment can be described thus: single-cell single-molecule pull-down.

B1: PAR-6::HaloTag (natural protein, C. elegans (endogenous in zygotes), UniProt Q9NAN2 1-309, looked up)
chain: MSYNGSYHQNHHSTLQVKSKFDSEWRRFSIPMHSASGVSYDGFRSLVEKLHHLESVQFTLCYNSTGGDLLPITNDDNLRKSFESARPLLRLLIQRRGESWEEKYGYGTDSDKRWKGISSLMAQKPPKRSYSISNPEDFRQVSAIIDVDIVPEAHRRVRLCKHGQERPLGFYIRDGTSVRVTERGVVKVSGIFISRLVDGGLAESTGLLGVNDEVLEVNGIEVLGKTLDQVTDMMVANAHNLIITVKPANQRNTLSRGPSQQGTPNASEMSAATAAATGGIQRPMKMNGSSDGSYHPKQHDANDSDSGED
modifications: HaloTag labelled with HaloTag ligand dye JF646, JFX646 or JFX650
B1: the koff is 0.002 s⁻¹.

Values taken from article doi:10.1101/2021.07.07.451367 (bioRxiv, 2021).
